Data: patent US20150132277A1 (Scripps Research, published 2015)
Changes are numbered by the printed parent chain. Numbers in names are those of the source.

B1: F260EY201EI278E T2-WRS variant (stable monomer) (enzyme)
chain: SAKGIDYDKLIVRFGSSKIDKELINRIERATGQRPHHFLRRGIFFSHRDMNQVLDAYENKKPFYLYTGRGPSSEAMHVGHLIPFIFTKWLQDVFNVPLVIQMTDDEKELWKDLTLDQAYSYAVENAKDIIACGFDINKTFIFSDLDYMGMSSGFYKNVVKIQKHVTENQVKGIFGFTDSDCIGKESFPAIQAAPSFSNSFPQIFRDRTDIQCLIPCAIDQDPYFRMTRDVAPRIGYPKPALLHSTFFPALQGAQTKMSASDPNSSIFLTDTAKQIKTKVNKHAFSGGRDTIEEHRQFGGNCDVDVSFMYLTFFLEDDDKLEQIRKDYTSGAMLTGELKKALIEVLQPLIAEHQARRKEVTDEIVKEFMTPRKLSFDFQHHHHHH
notes: Residue numbers of the mutations are those of full-length WRS; also called monomer T2-WRS; T2-WRS (F260EY201EI278E)
B2: VE-Cadherin extracellular domain EC1 (residues 48-155 of full-length VE-Cadherin), tag-free (other)
chain: DWIWNQMHIDEEKNTSLPHHVGKIKSSVSRKNAKYLLKGEYVGKVFRVDAETGDVFAIERLDRENISEYHLTAVIVDKDTGENLETPSSFTIKVHDVNDNWPVFTHRL
notes: Expressed as a GST fusion; also called VE-EC1; VE-Cadherin EC1 domain
B3: human T2-WRS (residues 94-471 of full-length tryptophanyl-tRNA synthetase) with C-terminal His6 tag (enzyme)
chain: B1 chain with E108Y, E167F, E185I
notes: In monomer-dimer equilibrium; also called WT T2-WRS; WT T2-TrpRS
B4: native human KRS (70-584) with T285C mutation (enzyme)
chain: not shown
modifications: disulfide between Cys 285 of the two subunits in the absence of DTT
notes: also called native KRST285C
B5: Flavo-KRS (70-584) with T285C mutation (enzyme)
chain: SVDPNQYYKIRSQAIHQLKVNGEDPYPHKFHVDISLTDFIQKYSHLQPGDHLTDITLKVAGRIHAKRASGGKLIFYDLRGEGVKLQVMANSRNYKSEEEFIHINNKLRRGDIIGVQGNPGKTKKGELSIIPYEITLLSPCLHMLPHLHFGLKDKETRYRQRYLDLILNDFVRQKFIIRSKIITYIRSFLDELGFLEIETPMMNIIPGGAVAKPFICYHNELDMNLYMRIAPELYHKMLVVGNMGLFYGSSTCYTEMAAEKIRDIIGPELVTLHNLKDDSPKLMEQYDVLILGIPTWDFGEIQEDWEAVWDQLDDLNLEGKIVALYGLGDQLGYGEWFLDALGMLHDKLSTKGVKFVGYWPTEGYEFTSPKPVIADGQLFVGLALDETNQYDLSDERIQSWCEQILNEMARVYEIGRQFRNEGIDLTHNPEFTTCEFYMAYADYHDLMEITEKMVSGMVKHITGSYKVTYHPDGPEGQAYDVDFTPPFRRINMVEELEKALGMKLPETNLFETEETRKILDDICVAKAVECPPPRTTARLLDKLVGEFLEVTCINPTFICDHPQIMSPLAKWHRSKEGLTERFELFVMKKEICNAYTELNDPMRQRQLFEEQAKAKAAGDDEAMFIDENFCTALEYGLPPTAGWGMGIDRVAMFLTDSNNIKEVLLFPAMKPEDKKENVATAGHHHHHH
notes: also called T285C Flavo-KRS
B6: non-associating monomeric Δ159-161 variant of mini-YRS (enzyme)
chain: MGDAPSPEEKLHLITRNLQEVLGEEKLKEILKERELKIYWGTATTGKPHVAYFVPMSKIADFLKAGCEVTILFADLHAYLDNMKAPWELLELRVSYYENVIKAMLESIGVPLEKLKFIKGTDYQLSKEYTLDVYRLSSVVTQHDSKKAGAEVVKQVEHSGLLYPGLQALDEEYLKVDAQFGGIDQRKIFTFAEKYLPALGYSKRVHLMNPMVPGLTGSKMSSSEEESKIDLLDRKEDVKKKLKKAFCEPGNVENNGVLSFIKHVLFPLKSEFVILRDEKWGGNKTYTAYVDLEKDFAAEVVHPGDLKNSVEVALNKLLDPIREKFNTPALKKLASAAYPDPSKQKPMAKGPAKNSEPEEVI
notes: also called the monomer
B7: wild-type (WT) human mini-YRS (N-terminal fragment of human tyrosyl-tRNA synthetase) (enzyme)
chain: MGDAPSPEEKLHLITRNLQEVLGEEKLKEILKERELKIYWGTATTGKPHVAYFVPMSKIADFLKAGCEVTILFADLHAYLDNMKAPWELLELRVSYYENVIKAMLESIGVPLEKLKFIKGTDYQLSKEYTLDVYRLSSVVTQHDSKKAGAEVVKQVEHPLLSGLLYPGLQALDEEYLKVDAQFGGIDQRKIFTFAEKYLPALGYSKRVHLMNPMVPGLTGSKMSSSEEESKIDLLDRKEDVKKKLKKAFCEPGNVENNGVLSFIKHVLFPLKSEFVILRDEKWGGNKTYTAYVDLEKDFAAEVVHPGDLKNSVEVALNKLLDPIREKFNTPALKKLASAAYPDPSKQKPMAKGPAKNSEPEEVI
notes: In monomer-dimer equilibrium; also called WT mini-YRS; mini-tyrosyl tRNA synthetase
B8: truncated human KRS (residues 70-584 of full-length lysyl-tRNA synthetase) with C-terminal 6xHis tag (enzyme)
chain: not shown
notes: Homodimer (alpha2) in solution; also called native human KRS (70-584); native KRS

What was measured:
[1] = biological target: B2; assay: SPR (Biacore), T2-WRS variant amine-coupled to CM5 chip, EC1 domain in flow, 0.1 mM ZnCl2, kinetic titration fitting; monomer F260EY201EI278E T2-WRS on the chip, EC1 in flow
[2] = biological target: B3; assay: SPR (Biacore), T2-WRS amine-coupled to CM5 chip, EC1 domain in flow, 0.1 mM ZnCl2, kinetic titration fitting; WT T2-WRS on the chip, EC1 in flow
[3] = biological target: the molecule itself; assay: size exclusion chromatography, 100 nM to 10 uM; percentage of dimers against concentration; dimer-monomer dissociation constant
[4] = biological target: the molecule itself; assay: size exclusion chromatography, percent dimer plotted against protein concentration; dimer-monomer dissociation constant
[5] = biological target: the molecule itself; assay: disulfide crosslinking across the dimer interface, SDS-PAGE with and without DTT
Description: All proteins were expressed and purified as mentioned above, except that no beta-mercaptoethanol was added. The purified proteins were diluted to 1 mg/ml in 25 mM HEPES (pH7.5, 150 mM NaCl) and incubated for 15 minutes at 4° C. with or without 10 mM DTT (dithiothreitol). Proteins samples (10 μl) were mixed with an equal amount of 2× loading buffer (without reducing reagent) and boiled for 1 min before loading onto a SDS-PAGE gel.

[6] = biological target: the molecule itself; assay: gel filtration chromatography as a function of protein concentration; dimer-monomer equilibrium
Description: (§1) Each protein sample (200 μl of 20 μM) was injected to Superdex 200 chromatography column (GE Healthcare, 10/300GL) in PBS containing 5 mM β-mercaptoethanol. The column was then calibrated by standard proteins. […] To determine the dissociation constant for dimer-monomer equilibrium, gel chromatography was carried out as a function of protein concentration.

[7] = biological target: the molecule itself; assay: gel chromatography with immunoblotting of fractions (YRS polyclonal antibody); dimer-monomer equilibrium
Description: as §1

[8] = biological target: the molecule itself; assay: gel chromatography; dimer-monomer equilibrium, reference Δ159-161 mini-YRS
Description: as §1

[9] = biological target: the molecule itself; assay: Superdex 200 gel filtration, 0.5-2 µM, self-association
Description: E. coli Flavodoxin was inserted at the position of G310 on the peripheral region of the KRS dimer interface. The linker was kept short to reduce the potential structural flexibility. […] All proteins were loaded at a concentration range of 0.5-2 μM. […] BSA is bovine serum albumin.
The peak fractions were analyzed by SDS-PAGE and visualized by Coomassie blue staining.

For B1, the Kd [1] was 1340 nM.

Work on B2 yielded a Kd [2] of 1520 nM.

B3 was tested, and the Kd [3] was 437 nM and the Kd [4] was 472 nM.

B4: binds [5].

B5: no binding [5].

In the case of B6, the Kd [6] is reported as ~100000 nM.

For B7, the Kd [7] was ~100 nM and the “fold lower dimer-monomer dissociation constant than Δ159-161” value [8] was ~1000 fold.

B8: binds [9].
